Reference: patent publication US8178324B2, “Deracemisation of amines” (Ingenza Limited, priority 2002, dated 2012)

What was measured:
Type in all cases: biochemical
[1] = Specific activity of the purified MAO mutant active fraction against amylamine; details: active fraction after QSepharose, protein 1 mg·ml^−1
Description: LB medium (6×300 ml) containing ampicillin (100 μg·ml^−1) in 1 L baffled flasks was inoculated with a single colony of monoamine oxidase mutant from an LB agar plate. Cultures were incubated at 30° C. for 22 hours (OD600˜3.6) then harvested and washed with phosphate buffer (50 mM, pH 8) to yield a yellow-brown pellet (11.2 g).
The pellet was resuspended in Tris/HCl buffer (25 mM, pH 7.8, 30 ml) and sonicated on ice (30 s on, 30 s off for 10 minutes). The suspension was then centrifuged (20,000 rpm, 4° C.) until clear supernatant was obtained and the supernatant dialysed against Tris/HCl buffer (25 mM, pH 7.8). The cell free extract was filtered through 0.45 μm sterile membrane and chromatographed on a QSepharose anion exchange column. Fractions were assayed using colorimetric hydrogen peroxide based assay and active fractions were stored at −80° C. The active fraction has a protein content of 1 mg·ml^−1, and a specific activity of 0.193 U·mg^−1 against amylamine. […]
The spectrophotometer was blanked against assay mixture and HRP. Enzyme was added and the absorbance at 500 nm measured at 3 s intervals for a 10 minute period.

[2] = Specific activities of partially purified MAO WT and MAOArg259/260 towards amylamine
Description: MAO WT and MAOArg259/260 were partially purified from recombinant E. coli BL21(DE3) harbouring a pET16b carrying the corresponding mao-n gene. Cell free extracts were prepared by sonication and the specific activities of MAO WT and MAOArg259/260 towards AA were measured for both the soluble and insoluble fractions. (Table 3)

[3] = Cell free extracts assayed towards L-AMBA; details: 240 minutes
Description: To 895 ul Assay Mixture was Added: • 5 μl HRP (Sigma, P6782) (1 mg/ml)
Sample (100 μl) was added and absorbance at 510 nm measured after 24 hours against a control without sample.
This was achieved by incubating 50 μl of each sample for 240 minutes and specific activities were determined. (Table 4)

B1: MAO mutant: A. niger monoamine oxidase variant with serine replacing asparagine at position 336 (SEQ ID NO: 2) (protein)
chain: MTSRDGYQWTPETGLTQGVPSLGVISPPTNIEDTDKDGPWDVIVIGGGYCGLTATRDLTVAGFKTLLLEARDRIGGRSWSSNIDGYPYEMGGTWVHWHQSHVWREITRYKMHNALSPSFNFSRGVNHFQLRTNPTTSTYMTHEAEDELLRSALHKFTNVDGTNGRTVLPFPHDMFYVPEFRKYDEMSYSERIDQIRDELSLNERSSLEAFILLCSGGTLENSSFGEFLHWWAMSGYTYQGCMDCLISYKFKDGQSAFARRFWEEAAGTGRLGYVFGCPVRSVVNERDAARVTARDGREFVAKRVVCTIPLNVLSTIQFSPALSTERISAMQAGHVSMCTKVHAEVDNMDMRSWTGIAYPFNKLCYAIGDGTTPAGNTHLVCFGTDANHIQPDEDVRETLKAVGQLAPGTFGVKRLVFHNWVKDEFAKGAWFFSRPGMVSECLQGLREKHGGVVFANSDWALGWRSFIDGAIEEGTRAARVVLEELGTKREVKARL
modifications: Variant monoamine oxidase enzyme generated by direct evolution
**Q.** For B1, which “specific activity against amylamine” value [1] is on record?
**A.** The value was 0.193 U·mg^−1.

B2: MAO WT: wild-type Aspergillus niger monoamine oxidase (SEQ ID NO:1) expressed in E. coli BL21(DE3) (protein)
chain: MTSRDGYQWTPETGLTQGVPSLGVISPPTNIEDTDKDGPWDVIVIGGGYCGLTATRDLTVAGFKTLLLEARDRIGGRSWSSNIDGYPYEMGGTWVHWHQSHVWREITRYKMHNALSPSFNFSRGVNHFQLRTNPTTSTYMTHEAEDELLRSALHKFTNVDGTNGRTVLPFPHDMFYVPEFRKYDEMSYSERIDQIRDELSLNERSSLEAFILLCSGGTLENSSFGEFLHWWAMSGYTYQGCMDCLISYKFKDGQSAFARRFWEEAAGTGRLGYVFGCPVRSVVNERDAARVTARDGREFVAKRVVCTIPLNVLSTIQFSPALSTERISAMQAGHVNMCTKVHAEVDNMDMRSWTGIAYPFNKLCYAIGDGTTPAGNTHLVCFGTDANHIQPDEDVRETLKAVGQLAPGTFGVKRLVFHNWVKDEFAKGAWFFSRPGMVSECLQGLREKHGGVVFANSDWALGWRSFIDGAIEEGTRAARVVLEELGTKREVKARL
modifications: Aspergillus niger
**Q.** With B2 as the molecule, how does the Total activity [2] read?
**A.** The Total activity was 0.57 U.

**Q.** What about the “Insoluble fraction specific activity” value ([2]; insoluble fraction) of the same molecule?
**A.** Its value is 0.33 U · mg^−1.

**Q.** What about the “Soluble fraction specific activity” value ([2]; soluble fraction) of the same molecule?
**A.** The value was 0.23 U · mg^−1.

**Q.** What about the “ΔAbs 510 nm” value ([3]; 50 μl sample) of the same molecule?
**A.** The value was 0.06.

**Q.** And the “Soluble fraction specific activity” value [3]?
**A.** Its value is 3.6 × 10^−5 U · mg^−1.
